B1: Aβ9-18 or APP 770 (G680-V689) (peptide)
peptide: GYEVHHQKLV
B2: Aβ10-19 or APP 770 (Y681-F690) (peptide)
peptide: YEVHHQKLVF
B3: Aβ11-20 or APP 770 (E682-F691) (peptide)
peptide: EVHHQKLVFF
B4: Aβ12-21 or APP 770 (V683-A692) (peptide)
peptide: VHHQKLVFFA
B5: Aβ13-22 or APP 770 (H684-E693) (peptide)
peptide: HHQKLVFFAE

Each binder was assayed against Serum samples collected at week 16 from patients immunized with UBI AD vaccine (UB-311) (assay: comp. ELISA, serum P101).
An IC50-based peak height of 0 was found for B1 in this work. An IC50-based peak height of 0 was found for B2 in this work. An IC50-based peak height of 0 was found for B3 in this work. An IC50-based peak height of 0 was found for B4 in this work. An IC50-based peak height of 0 was found for B5 in this work.

Each binder was assayed against Serum samples collected at week 16 from patients immunized with UBI AD vaccine (UB-311) (assay: comp. ELISA, serum P102).
An IC50-based peak height of 0 was found for B1 in this work. An IC50-based peak height of 0 was found for B2 in this work. An IC50-based peak height of 0 was found for B3 in this work. An IC50-based peak height of 0 was found for B4 in this work. An IC50-based peak height of 0 was found for B5 in this work.

What follows are binders tested against Serum samples collected at week 16 from patients immunized with UBI AD vaccine (UB-311) (assay: comp. ELISA, serum P103).
An IC50-based peak height of 0 was found for B1 in this work. An IC50-based peak height of 0 was found for B2 in this work. An IC50-based peak height of 0 was found for B3 in this work. An IC50-based peak height of 0 was found for B4 in this work. An IC50-based peak height of 0 was found for B5 in this work.

Each binder was assayed against Serum samples collected at week 16 from patients immunized with UBI AD vaccine (UB-311) (assay: comp. ELISA, serum P104).
An IC50-based peak height of 0 was found for B1 in this work. An IC50-based peak height of 0 was found for B2 in this work. An IC50-based peak height of 0 was found for B3 in this work. An IC50-based peak height of 0 was found for B4 in this work. An IC50-based peak height of 0 was found for B5 in this work.

The binders below were run against Serum samples collected at week 16 from patients immunized with UBI AD vaccine (UB-311) (assay: comp. ELISA, serum P105).
An IC50-based peak height of 0 was found for B1 in this work. An IC50-based peak height of 0 was found for B2 in this work. An IC50-based peak height of 0 was found for B3 in this work. An IC50-based peak height of 0 was found for B4 in this work. An IC50-based peak height of 0 was found for B5 in this work.

These binders were tested against Serum samples collected at week 16 from patients immunized with UBI AD vaccine (UB-311) (assay: comp. ELISA, serum P106).
An IC50-based peak height of 0 was found for B1 in this work. An IC50-based peak height of 0 was found for B2 in this work. An IC50-based peak height of 0 was found for B3 in this work. An IC50-based peak height of 0 was found for B4 in this work. An IC50-based peak height of 0 was found for B5 in this work.

These binders were tested against Serum samples collected at week 16 from patients immunized with UBI AD vaccine (UB-311) (assay: comp. ELISA, serum P107).
An IC50-based peak height of 0 was found for B1 in this work. An IC50-based peak height of 0 was found for B2 in this work. An IC50-based peak height of 0 was found for B3 in this work. An IC50-based peak height of 0 was found for B4 in this work. An IC50-based peak height of 0 was found for B5 in this work.

What follows are binders tested against Serum samples collected at week 16 from patients immunized with UBI AD vaccine (UB-311) (assay: comp. ELISA, serum P108).
An IC50-based peak height of 0 was found for B1 in this work. An IC50-based peak height of 0 was found for B2 in this work. An IC50-based peak height of 0 was found for B3 in this work. An IC50-based peak height of 0 was found for B4 in this work. An IC50-based peak height of 0 was found for B5 in this work.

What follows are binders tested against Serum samples collected at week 16 from patients immunized with UBI AD vaccine (UB-311) (assay: comp. ELISA, serum P109).
An IC50-based peak height of 0 was found for B1 in this work. An IC50-based peak height of 0 was found for B2 in this work. An IC50-based peak height of 0 was found for B3 in this work. An IC50-based peak height of 0 was found for B4 in this work. An IC50-based peak height of 0 was found for B5 in this work.

Each binder was assayed against Serum samples collected at week 16 from patients immunized with UBI AD vaccine (UB-311) (assay: comp. ELISA, serum P201).
An IC50-based peak height of 0 was found for B1 in this work. An IC50-based peak height of 0 was found for B2 in this work. An IC50-based peak height of 0 was found for B3 in this work. An IC50-based peak height of 0 was found for B4 in this work. An IC50-based peak height of 0 was found for B5 in this work.

What follows are binders tested against Serum samples collected at week 16 from patients immunized with UBI AD vaccine (UB-311) (assay: comp. ELISA, serum P202).
An IC50-based peak height of 0 was found for B1 in this work. An IC50-based peak height of 0 was found for B2 in this work. An IC50-based peak height of 0 was found for B3 in this work. An IC50-based peak height of 0 was found for B4 in this work. An IC50-based peak height of 0 was found for B5 in this work.

These binders were tested against Serum samples collected at week 16 from patients immunized with UBI AD vaccine (UB-311) (assay: comp. ELISA, serum P203).
An IC50-based peak height of 0 was found for B1 in this work. An IC50-based peak height of 0 was found for B2 in this work. An IC50-based peak height of 0 was found for B3 in this work. An IC50-based peak height of 0 was found for B4 in this work. An IC50-based peak height of 0 was found for B5 in this work.

The binders below were run against Serum samples collected at week 16 from patients immunized with UBI AD vaccine (UB-311) (assay: comp. ELISA, serum P204).
An IC50-based peak height of 0 was found for B1 in this work. An IC50-based peak height of 0 was found for B2 in this work. An IC50-based peak height of 0 was found for B3 in this work. An IC50-based peak height of 0 was found for B4 in this work. An IC50-based peak height of 0 was found for B5 in this work.

Each binder was assayed against Serum samples collected at week 16 from patients immunized with UBI AD vaccine (UB-311) (assay: comp. ELISA, serum P205).
An IC50-based peak height of 0 was found for B1 in this work. An IC50-based peak height of 0 was found for B2 in this work. An IC50-based peak height of 0 was found for B3 in this work. An IC50-based peak height of 0 was found for B4 in this work. An IC50-based peak height of 0 was found for B5 in this work.

Each binder was assayed against Serum samples collected at week 16 from patients immunized with UBI AD vaccine (UB-311) (assay: comp. ELISA, serum P206).
An IC50-based peak height of 0 was found for B1 in this work. An IC50-based peak height of 0 was found for B2 in this work. An IC50-based peak height of 0 was found for B3 in this work. An IC50-based peak height of 0 was found for B4 in this work. An IC50-based peak height of 0 was found for B5 in this work.

Each binder was assayed against Serum samples collected at week 16 from patients immunized with UBI AD vaccine (UB-311) (assay: comp. ELISA, serum P207).
An IC50-based peak height of 16 was found for B1 in this work. An IC50-based peak height of 10 was found for B2 in this work. An IC50-based peak height of 0 was found for B3 in this work. An IC50-based peak height of 27 was found for B4 in this work. An IC50-based peak height of 0 was found for B5 in this work.

What follows are binders tested against Serum samples collected at week 16 from patients immunized with UBI AD vaccine (UB-311) (assay: comp. ELISA, serum P208).
An IC50-based peak height of 0 was found for B1 in this work. An IC50-based peak height of 0 was found for B2 in this work. An IC50-based peak height of 0 was found for B3 in this work. An IC50-based peak height of 0 was found for B4 in this work. An IC50-based peak height of 0 was found for B5 in this work.

The binders below were run against Serum samples collected at week 16 from patients immunized with UBI AD vaccine (UB-311) (assay: comp. ELISA, serum P209).
An IC50-based peak height of 0 was found for B1 in this work. An IC50-based peak height of 0 was found for B2 in this work. An IC50-based peak height of 0 was found for B3 in this work. An IC50-based peak height of 0 was found for B4 in this work. An IC50-based peak height of 0 was found for B5 in this work.

These binders were tested against Serum samples collected at week 16 from patients immunized with UBI AD vaccine (UB-311) (assay: comp. ELISA, serum P210).
An IC50-based peak height of 0 was found for B1 in this work. An IC50-based peak height of 0 was found for B2 in this work. An IC50-based peak height of 0 was found for B3 in this work. An IC50-based peak height of 0 was found for B4 in this work. An IC50-based peak height of 0 was found for B5 in this work.
